From patent US7662769B2, “Glycosyltransferase GnT-V having neovascularization action” (Suntory Holdings Limited, priority 2002, dated 2010)
*1 amine or outer side, *2 acyl side, *3 side chain or, on linkers, in order; H or OH if unused. Where a SMILES comes first, the peptide text is derived from it. [ ]: non-standard residue; d: D form. The star is where a group is joined. X1 = CC(N[*:1])C(=O)C(F)(F)C(=O)[*:2]; Boc = CC(C)(C)OC(=O)*

How the values were obtained:
[1] = test system: PaCa-2/GnT-V cell; assay: GnT-V activity in culture solution (production of secretory type GnT-V), PaCa-2/GnT-V cell; assay type: cell-based; conditions: 100 μM in DMSO, FIG. 10A
[2] = test system: KB/GnT-V cell; assay: GnT-V activity in culture solution (production of secretory type GnT-V), KB/GnT-V cell; assay type: cell-based; conditions: 100 μM in DMSO, FIG. 10B
[3] = test system: HUVEC; assay: HUVEC differentiation and growth, incorporation of [3H]-thymidine (DNA synthesis); assay type: cell-based, human; conditions: [3H]-thymidine incorporation; FIG. 2, 3B, 6
Experimental: For in vitro evaluation of induction of neovascularization by a GnT-V transformant, the amount of synthesis of DNA of human umbilical vein […] cells (HUVEC) after stimulation with culture solution of a GnT-V transformant was measured by a method of Soker et al.(Soker, S., et al., J. Biol. Chem. 272, 31582-31588 (1997)). HUVEC was inoculated on a 96-well plate coated with type I collagen at a rate of 2×10^3 cells per well, and 24 hours later, the medium was substituted with an MCDB131 medium (not containing FBS and FGF-2) containing 0.1% […] and a starved condition was maintained for 24 hours. The medium was substituted with culture solution of the WiDr cell transformed with the glycosyltransferase gene described in Example 1, and HUVEC was stimulated for 24 hours. HUVEC was maintained for 8 hours with [^3H]-thymidine (1 μCi/ml), and incorporation of [^3H]-thymidine into HUVEC was analyzed by MicroBeta-Counter (manufactured by Wallac) to measure the amount of synthesis of DNA. The result was shown as the mean value of assay results of 6 wells, and the standard deviation was measured. All experiments were repeated at least three times, and the same results were obtained. As apparent from FIG. 1, DNA synthesis of HUVEC stimulated with the culture solution of WiDr cells transformed with a GnT-V gene increased, however, the same effect was not observed in culture solution of WiDr cells transformed with other glycosyltransferase genes.
Purification of a neovascularization factor present in culture solution of WiDr cells transformed with a GnT-V gene was conducted using various column chromatographies. The neovascularization activity of each fraction was evaluated by differentiation and growth of HUVEC described in Example 3. In heparin affinity chromatography, a fraction of high growth activity of HUVEC was eluted with 0.3 M NaCl. Since known growth factors such as FGF-1, FGF-2, VEGF, placenta-induced growth factor (PIGF) and hepatocyte growth factor (HGF) and the like are eluted with 0.8 to 1.5 M NaCl (Hauser, S. & Weich H. A., Growth Factor 9, 259-268 (1993). Gohda, E., et al., J. Clin. Invest. 81, 414-419 (1998). Marez, A., et al., Biochimie 69, 125-129 (1987). Risau, W., et al., The EMBO J. 7, 959-962 (1988). Rothenthal, R. A., et al., Growth Factor 4, 53-59 (1990)), the above-mentioned nature is utterly different from the natures of these known growth factors. […] A fraction eluted with 0.3 M NaCl in heparin affinity chromatography was subjected to Western blot analysis using an anti-GnT-V antibody to find that the reaction of the anti-GnT-V antibody and the differentiation and growth activity of HUVEC are consistent each other, and the main protein having a differentiation and growth activity of HUVEC present in the fraction is GnT-V itself.

[4] = glycosyltransferase activity of GnT-V deficient variants; assay type: biochemical; conditions: recombinant variants from Sf21 cells
Description: For clarifying which domain of GnT-V is involved in HUVEC growth accelerating activity, a GnT-V lacking variant shown in FIG. 3A was produced. The method of production of a GnT-VΔ188 plasmid is disclosed in a literature of Sasai et al (Sasai, K., et al., Glycobiology (in press)). A transfer plasmid having a GnT-VΔ233 gene was produced by binding a DNA fragment of 1521 base pairs encoding polyhistidine tag at the C-terminal and an amino acid sequence of from Glu234 to Leu741 of human GnT-V, obtained by cutting a GnT-VΔ188 plasmid with EcoRI and EagI, to an EcoRI-EagI site of a transfer vector pAcGP67-A (manufactured by PharMingen). A transfer plasmid having a GnT-VΔ436 gene was produced by binding a DNA fragment of 912 base pairs encoding polyhistidine tag at the C terminal and an amino acid sequence of from Ile437 to Leu741, of human GnT-V, obtained by cutting a GnT-VΔ188 plasmid with EcoRV and EagI, to an EcoRV-EagI site of a transfer vector pAcGP67-A. For production of a recombinant Baculovirus, an insect cell Sf21 was transformed with the transfer plasmid obtained above according to a method known in a literature (Ikeda, Y., et al., J. Biochem. 128, 609-619 (2000)). The recombinant glycosyltransferase derived from the transformed Sf21 cell was purified by Ni^2+-chelating affinity chromatography according to a method disclosed in a literature of Sasaki et al (Sasai, K., et al., Glycobiology (in press)).

[5] = test system: HSPG on HUVEC; assay: release of FGF-2 from HSPG on HUVEC (FGF-2 ELISA of supernatant); assay type: cell-based, human; conditions: 4° C., 2 hours; FIG. 5
Description: A basic peptide (KRKRKK peptide) composed of Lys-Arg-Lys-Arg-Lys-Lys (SEQ ID NO: 11) which is an amino acid sequence of from 264 to 269 and a non-basic control peptide (FSGGPL peptide) composed of Phe-Ser-Gly-Gly-Pro-Leu (SEQ ID NO: 12) which is an amino acid sequence of from 291 to 296, of GnT-V, were synthesized, and an influence of these peptides on growth of HUVEC was examined. The peptide was synthesized by a peptide synthesizer A432 (manufactured by Applied Biosystems), and purified by reverse phase HPLC, then, its molecular weight and degree of purification were confirmed by MALDI TOF-MS (Voyager-DE (registered trademark) RP; manufactured by PerSeptive Biosystems). The concentration of FGF-2 was measured by a known method (Barillari, G., et al., American J. Patho. 152, 1161-1166 (1998)). […] After centrifugation at 4° C. and 3000 rpm for 5 minutes, the supernatant was collected, the concentration of FGF-2 in the supernatant was measured in an FGF-2 ELISA system (manufactured by R&D Systems) according to a manual of this system.
As described above, various deficient variants of GnT-V and synthetic peptides were added at 4° C. to culture solution of HUVEC, and the amount of FGF-2 released from HSPG on HUVEC was measured.

[6] = test system: HUVEC; assay: capillary-like tube formation assay using HUVEC; assay type: cell-based, human
Description: (§1) Induction of neovascularization by GnT-V was confirmed also by other in vitro neovascularization assays such as a capillary-like tube formation assay (Ashoton, A. W., et al., J. Biol. Chem. 274, 35562-35570 (1999)) and a migration assay (Zeng, H., et al., J. Biol. Chem. 276, 3271-3279 (2001)) using HUVEC.

[7] = test system: HUVEC; assay: migration assay using HUVEC; assay type: cell-based, human
Description: as §1

[8] = test system: chicken microvessels; assay: CAM (chorioallantoic membrane) assay of neovascularization; assay type: in vivo; conditions: ex-vivo, chicken embryo CAM
Experimental: Acceleration of neovascularization by a GnT-V transformant was confirmed by a CAM (chorioallantoic membrane) assay using an embryo of a chicken fertilized egg. The CAM assay was conducted by a method of Yen et al. (Yen, L., et al., Oncogene 19, 3460-3469 (2000)) and a method of Bernardini (Bernardini, G., et al., Blood 96, 4039-4045 (2000)), both being slightly modified. CAM 8 days after fertilization of white Leghorn was used, and 1×10^5 cells thereof were inoculated on a collagen sponge and maintained for 4 hours. A 5 mm silicon ring was placed on CAM on the collagen sponge and maintained for 48 hours.
as §1

For `CCC(C)C(NC(=O)C(NC(=O)OC(C)(C)C)C(C)C)C(=O)NC(C)C(=O)C(F)(F)C(=O)NC(C(=O)NC(C(=O)OC)C(C)CC)C(C)C` (centres unmarked) [DFK167] (Boc-VI[X1]VI-OMe; configuration not given here), the “GnT-V activity in culture solution” value [1] was “could not be detected” and the “GnT-V activity in culture solution” value [2] was “could not be detected”.

B1: GnT-VΔ233: GnT-V lacking variant, amino acid sequence from Glu234 to Leu741 of human GnT-V with C-terminal polyhistidine tag (protein, UniProt Q09328 234-741, looked up, fragment)
chain: EFRWMRLRIRRMADAWIQAIKSLAEKQNLEKRKRKKVLVHLGLLTKESGFKIAETAFSGGPLGELVQWSDLITSLYLLGHDIRISASLAELKEIMKKVVGNRSGCPTVGDRIVELIYIDIVGLAQFKKTLGPSWVHYQCMLRVLDSFGTEPEFNHANYAQSKGHKTPWGKWNLNPQQFYTMFPHTPDNSFLGFVVEQHLNSSDIHHINEIKRQNQSLVYGKVDSFWKNKKIYLDIIHTYMEVHATVYGSSTKNIPSYVKNHGILSGRDLQFLLRETKLFVGLGFPYEGPAPLEAIANGCAFLNPKFNPPKSSKNTDFFIGKPTLRELTSQHPYAEVFIGRPHVWTVDLNNQEEVEDAVKAILNQKIEPYMPYEFTCEGMLQRINAFIEKQDFCHGQVMWPPLSALQVKLAEPGQSCKQVCQESQLICEPSFFQHLNKDKDMLKYKVTCQSSELAKDILVPSFDPKNKHCVFQGDLLLFSCAGAHPRHQRVCPCRDFIKGQVALCKDCL
modifications: C-terminal His tag
In the case of B1, the “differentiation and growth of HUVEC (HUVEC growth accelerating activity)” value [3] is reported as “had an HUVEC growth and differentiation accentuation action”, the glycosyltransferase activity [4] is reported as “had no glycosyltransferase activity” and the “release of FGF-2 from HSPG on HUVEC” value [5] is reported as “released FGF-2”.

B2: GnT-V: secretory type glycosyltransferase N-acetylglucosaminyltransferase V (protein, UniProt Q09328 1-741, looked up)
Alpha-1,6-mannosylglycoprotein …: MALFTPWKLSSQKLGFFLVTFGFIWGMMLLHFTIQQRTQPESSSMLREQILDLSKRYIKALAEENRNVVDGPYAGVMTAYDLKKTLAVLLDNILQRIGKLESKVDNLVVNGTGTNSTNSTTAVPSLVALEKINVADIINGAQEKCVLPPMDGYPHCEGKIKWMKDMWRSDPCYADYGVDGSTCSFFIYLSEVENWCPHLPWRAKNPYEEADHNSLAEIRTDFNILYSMMKKHEEFRWMRLRIRRMADAWIQAIKSLAEKQNLEKRKRKKVLVHLGLLTKESGFKIAETAFSGGPLGELVQWSDLITSLYLLGHDIRISASLAELKEIMKKVVGNRSGCPTVGDRIVELIYIDIVGLAQFKKTLGPSWVHYQCMLRVLDSFGTEPEFNHANYAQSKGHKTPWGKWNLNPQQFYTMFPHTPDNSFLGFVVEQHLNSSDIHHINEIKRQNQSLVYGKVDSFWKNKKIYLDIIHTYMEVHATVYGSSTKNIPSYVKNHGILSGRDLQFLLRETKLFVGLGFPYEGPAPLEAIANGCAFLNPKFNPPKSSKNTDFFIGKPTLRELTSQHPYAEVFIGRPHVWTVDLNNQEEVEDAVKAILNQKIEPYMPYEFTCEGMLQRINAFIEKQDFCHGQVMWPPLSALQVKLAEPGQSCKQVCQESQLICEPSFFQHLNKDKDMLKYKVTCQSSELAKDILVPSFDPKNKHCVFQGDLLLFSCAGAHPRHQRVCPCRDFIKGQVALCKDCL
For B2, the “induction of neovascularization, capillary-like tube formation” value [6] was “confirmed” and the “induction of neovascularization, migration” value [7] was “confirmed”.

B3: GnT-VΔ436: GnT-V lacking variant, amino acid sequence from Ile437 to Leu741 of human GnT-V with C-terminal polyhistidine tag (protein, UniProt Q09328 437-741, looked up, fragment)
chain: IHHINEIKRQNQSLVYGKVDSFWKNKKIYLDIIHTYMEVHATVYGSSTKNIPSYVKNHGILSGRDLQFLLRETKLFVGLGFPYEGPAPLEAIANGCAFLNPKFNPPKSSKNTDFFIGKPTLRELTSQHPYAEVFIGRPHVWTVDLNNQEEVEDAVKAILNQKIEPYMPYEFTCEGMLQRINAFIEKQDFCHGQVMWPPLSALQVKLAEPGQSCKQVCQESQLICEPSFFQHLNKDKDMLKYKVTCQSSELAKDILVPSFDPKNKHCVFQGDLLLFSCAGAHPRHQRVCPCRDFIKGQVALCKDCL
modifications: C-terminal His tag
In the case of B3, the “differentiation and growth of HUVEC (HUVEC growth accelerating activity)” value [3] is reported as “did not have an HUVEC growth and differentiation accentuation action”, the glycosyltransferase activity [4] is reported as “had no glycosyltransferase activity” and the “release of FGF-2 from HSPG on HUVEC” value [5] is reported as “did not affect release of FGF-2”. For the same molecule, the “induction of neovascularization in CAM assay” value [8] was “did not have a neovascularization activity”.
